What is called stoichiometry N is a count of units in the complex or per binding partner.

The target of experiment [1] is allophycocyanin αβ dimer (purified APC, Sigma-Aldrich A7472) (UniProt P72504). Description: native MS; purified APC, 1 μM hexamer (6 μM bilin); 100 mM ammonium acetate; without metal ions and with Ag+, Cu2+, Fe2+/3+ or Zn2+ (oligomeric equilibrium unchanged on a short timescale; prolonged exposure to Cu2+ gives dissociation towards the dimer).
The target of experiment [2] is phycocyanin αβ dimer (Arthrospira maxima CCAP 1475/9) (Arthrospira maxima (CCAP 1475/9)). Description: native MS; purified PC (24 μM bilin) with Ag+ at 0.25 and 0.5 bilin equivalents; 100 mM ammonium acetate.
The target is the same in experiment [3]. Briefly: native MS; purified PC without metal ions, 1 μM hexamer (Fig. 1D); 100 mM ammonium acetate pH 6.8; nano-electrospray, Orbitrap; hexamer to αβ dimers.

In experiment [1], “allophycocyanin αβ dimer (purified APC, Sigma-Aldrich A7472) (from UniProt P72504 1-161; P72505 1-161) (complex)” registered a stoichiometry N of 3.

In the case of “phycocyanin αβ dimer (Arthrospira maxima CCAP 1475/9) (from UniProt P72509 1-162; P72508 1-172) (complex)”, the stoichiometry N amounted to 2 in experiment [2] and 3 in experiment [3].
